Results as given in patent US20260209362A1 (VIB VZW, published 2026).

T1: human IL-12Rβ2 expressed on cells (human, UniProt Q99665 24-862)
T1 sequence: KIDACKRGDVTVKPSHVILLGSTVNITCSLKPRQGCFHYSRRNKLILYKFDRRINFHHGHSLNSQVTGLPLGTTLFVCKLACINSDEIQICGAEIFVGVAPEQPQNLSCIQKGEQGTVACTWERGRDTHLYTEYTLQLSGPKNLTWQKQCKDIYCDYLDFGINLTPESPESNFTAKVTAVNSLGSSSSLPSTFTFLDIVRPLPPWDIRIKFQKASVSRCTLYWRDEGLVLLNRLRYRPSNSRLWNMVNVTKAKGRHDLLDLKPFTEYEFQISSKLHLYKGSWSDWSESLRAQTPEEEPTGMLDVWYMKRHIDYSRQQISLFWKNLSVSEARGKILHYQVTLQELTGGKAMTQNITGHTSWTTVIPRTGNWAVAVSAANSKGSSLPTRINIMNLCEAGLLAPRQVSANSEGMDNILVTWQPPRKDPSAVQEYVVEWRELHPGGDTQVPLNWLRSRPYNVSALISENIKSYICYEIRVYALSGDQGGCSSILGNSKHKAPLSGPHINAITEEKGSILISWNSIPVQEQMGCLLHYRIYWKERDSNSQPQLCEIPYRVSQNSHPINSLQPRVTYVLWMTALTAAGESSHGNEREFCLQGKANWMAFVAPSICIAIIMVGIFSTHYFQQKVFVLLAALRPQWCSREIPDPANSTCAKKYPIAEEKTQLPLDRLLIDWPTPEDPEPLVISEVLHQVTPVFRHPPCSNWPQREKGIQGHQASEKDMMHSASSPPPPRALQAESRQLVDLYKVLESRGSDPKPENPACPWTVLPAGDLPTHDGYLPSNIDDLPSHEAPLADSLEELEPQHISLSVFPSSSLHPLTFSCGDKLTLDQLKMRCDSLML


biological target: T1, human IL-12Rβ2 expressed on cells; assay: cell-based or functional assay

% Specific Cell Lysis at 0.00125 ug/mL [%] | % Specific Cell Lysis at 0.5 ug/mL [%] | % Specific Cell Lysis at 10 ug/mL [%] | % Specific Cell Lysis at 0.025 ug/mL [%] | Binder
49.5 | 63.4 | 66.9 | – | anti-IL-12Rβ2-VHH-FcDE clone 20438 (Fc fusion) QVQLQESGGGLVQPGGSLRLSCTASGFAFSTYWMYWIRQSPEKGFEWVSVVNTGGDITYYADSVKGRFTISRDNAKNTLYLQMNSLKPEDTALYYCARDRTTMSYTRTYYRGGQGTQVTVSSAPELLGGPDVFLFPPKPKDTLMISRTPEVTCVVVDVSHEDPEVKFNWYVDGVEVHNAKTKPREEQYNSTYRVVSVLTVLHQDWLNGKEYKCKVSNKALPAPEEKTISKAKGQPREPQVYTLPPSRDELTKNQVSLTCLVKGFYPSDIAVEWESNGQPENNYKTTPPVLDSDGSFFLYSKLTVDKSRWQQGNVFSCSVMHEALHNHYTQKSLSLSPGK
– | 73.5 | 75.5 | 63.9 | anti-IL-12Rβ2-VHH-FcDE clone 21060 (Fc fusion) QVQLQESGGGLVQAGGSLSLSCAASGSAFRLNFMGWYRQAPGKQRELVAAINSGGTEIYHDSVKGRFTISRDNADSTVWLQMNSLKPDDTAVYYCAADRGISWSKLAGGMDYWGKGTQVTVSSAPELLGGPDVFLFPPKPKDTLMISRTPEVTCVVVDVSHEDPEVKFNWYVDGVEVHNAKTKPREEQYNSTYRVVSVLTVLHQDWLNGKEYKCKVSNKALPAPEEKTISKAKGQPREPQVYTLPPSRDELTKNQVSLTCLVKGFYPSDIAVEWESNGQPENNYKTTPPVLDSDGSFFLYSKLTVDKSRWQQGNVFSCSVMHEALHNHYTQKSLSLSPGK
46.5 | 64.7 | 73.3 | 51.6 | anti-IL-12Rβ2-VHH-FcDE clone 21053 (Fc fusion) QVQLQESGGGLVQAGGSLRLSCAASGRTFSNYAMAWFRQAPGTEREFVAGLSGSGGDTEFYDDSVKGRFAISRDSAKNTVWLQMNSLKPEDTAVYYCAAATHVVVHYGLVRRRGTYDYWGQGTQVTVSSAPELLGGPDVFLFPPKPKDTLMISRTPEVTCVVVDVSHEDPEVKFNWYVDGVEVHNAKTKPREEQYNSTYRVVSVLTVLHQDWLNGKEYKCKVSNKALPAPEEKTISKAKGQPREPQVYTLPPSRDELTKNQVSLTCLVKGFYPSDIAVEWESNGQPENNYKTTPPVLDSDGSFFLYSKLTVDKSRWQQGNVFSCSVMHEALHNHYTQKSLSLSPGK
52.8 | 68.8 | 77.9 | 61.1 | 20415-FcDE (Fc fusion) VHH-Fc chain: QVQLQESGGGLVQPGGSLRLSCTASGSIVSIYNMDWYRQAPGNEREWVASITSSGDPYYDGSAKGRFTISRDNAKMTVYLQMNSLKPEDTAVYYCKVPTEKGNYWGQGTQVTVSSAPELLGGPDVFLFPPKPKDTLMISRTPEVTCVVVDVSHEDPEVKFNWYVDGVEVHNAKTKPREEQYNSTYRVVSVLTVLHQDWLNGKEYKCKVSNKALPAPEEKTISKAKGQPREPQVYTLPPSRDELTKNQVSLTCLVKGFYPSDIAVEWESNGQPENNYKTTPPVLDSDGSFFLYSKLTVDKSRWQQGNVFSCSVMHEALHNHYTQKSLSLSPGK
– | 65.8 | 67.3 | – | 20422-FcDE (Fc fusion) VHH-Fc chain: QVQLQESGGGLVQPGGSLRLSCTASGSIVSIYNMDWYRQAPGNEREWVASITSSGDPYYDGSAKGRFTISRDNAKMTVYLQMNSLEPEDTAVYFCKVPTEKGNYWGQGTQVTVSSAPELLGGPDVFLFPPKPKDTLMISRTPEVTCVVVDVSHEDPEVKFNWYVDGVEVHNAKTKPREEQYNSTYRVVSVLTVLHQDWLNGKEYKCKVSNKALPAPEEKTISKAKGQPREPQVYTLPPSRDELTKNQVSLTCLVKGFYPSDIAVEWESNGQPENNYKTTPPVLDSDGSFFLYSKLTVDKSRWQQGNVFSCSVMHEALHNHYTQKSLSLSPGK
61.3 | 67.7 | 69 | 65.9 | 20421-FcDE (Fc fusion) VHH-Fc chain: QVQLQESGGGLVQPGGSLRLSCAASGFTFSTYAMSWVRQAPGKGLEWVSAVNSGGLSTDYADSVEGRFTISRDDAKNMLFLQMNRLKPEDTARYYCAKYEDCSDYVCDRAGYWGQGTQVTVSSAPELLGGPDVFLFPPKPKDTLMISRTPEVTCVVVDVSHEDPEVKFNWYVDGVEVHNAKTKPREEQYNSTYRVVSVLTVLHQDWLNGKEYKCKVSNKALPAPEEKTISKAKGQPREPQVYTLPPSRDELTKNQVSLTCLVKGFYPSDIAVEWESNGQPENNYKTTPPVLDSDGSFFLYSKLTVDKSRWQQGNVFSCSVMHEALHNHYTQKSLSLSPGK
42.4 | 61.3 | 63.7 | 50.1 | anti-IL-12Rβ2-VHH-FcDE clone 21050 (Fc fusion) QVQLQESGGGLVQAGGSLRLSCAASGRTFNNYAMAWFRQAPGKEREFIAAITRSDTTLYIDSVKGRFTISRDNAKNTVALQMNSLKPEDTAVYYCAAGMPYSYSDYPRDSKYDYWGRGTQVTVSSAPELLGGPDVFLFPPKPKDTLMISRTPEVTCVVVDVSHEDPEVKFNWYVDGVEVHNAKTKPREEQYNSTYRVVSVLTVLHQDWLNGKEYKCKVSNKALPAPEEKTISKAKGQPREPQVYTLPPSRDELTKNQVSLTCLVKGFYPSDIAVEWESNGQPENNYKTTPPVLDSDGSFFLYSKLTVDKSRWQQGNVFSCSVMHEALHNHYTQKSLSLSPGK
63.3 | 71.7 | 66.2 | 66.5 | anti-IL-12Rβ2-VHH-FcDE clone 20407 (Fc fusion) QVQLQESGGGLVQPGGSLRLTCVASGFPFSTHAMSWVRQPPGKGREWISAINSGGDSTDYADSVMGRFTISRDNAKNTVYLQMNSLKSEDTAAYYCAKYEDCSDYDCSSRASWGQGTQVTVSSAPELLGGPDVFLFPPKPKDTLMISRTPEVTCVVVDVSHEDPEVKFNWYVDGVEVHNAKTKPREEQYNSTYRVVSVLTVLHQDWLNGKEYKCKVSNKALPAPEEKTISKAKGQPREPQVYTLPPSRDELTKNQVSLTCLVKGFYPSDIAVEWESNGQPENNYKTTPPVLDSDGSFFLYSKLTVDKSRWQQGNVFSCSVMHEALHNHYTQKSLSLSPGK
59 | 67.7 | 67.3 | – | 20429-FcDE (Fc fusion) VHH-Fc chain: QVQLQESGGGLVQPGGSLRLSCKASGFTFSTYAMSWVRQAPGKGLEWVSAVNSGGLSTDYADSVEGRFTISRDDAKNMLFLQMNSLKPEDTARYYCAKYEDCSDYMCHRDRAGYWGQGTQVTVSSAPELLGGPDVFLFPPKPKDTLMISRTPEVTCVVVDVSHEDPEVKFNWYVDGVEVHNAKTKPREEQYNSTYRVVSVLTVLHQDWLNGKEYKCKVSNKALPAPEEKTISKAKGQPREPQVYTLPPSRDELTKNQVSLTCLVKGFYPSDIAVEWESNGQPENNYKTTPPVLDSDGSFFLYSKLTVDKSRWQQGNVFSCSVMHEALHNHYTQKSLSLSPGK
45.4 | – | – | 47.6 | 20400-FcDE (Fc fusion) VHH-Fc chain: QVQLQESGGGLVQPGGSLRLSCAASGRTINAYIMGWFRQAPGKEREFVAAVSGSGGSTYYADSVKGRFTISRDNAKNTVNLQMDNLRSEDTDVYYCAATYESVYLQNPGQYDYWGQGTQVTVSSAPELLGGPDVFLFPPKPKDTLMISRTPEVTCVVVDVSHEDPEVKFNWYVDGVEVHNAKTKPREEQYNSTYRVVSVLTVLHQDWLNGKEYKCKVSNKALPAPEEKTISKAKGQPREPQVYTLPPSRDELTKNQVSLTCLVKGFYPSDIAVEWESNGQPENNYKTTPPVLDSDGSFFLYSKLTVDKSRWQQGNVFSCSVMHEALHNHYTQKSLSLSPGK
– | – | – | 54.3 | anti-IL-12Rβ2-VHH-Fc clone 20432 with a wildtype IgG1 Fc sequence (Fc fusion) QVQLQESGGGLVQPGGSLRLSCAASGFTFSTSGMHWFRQAPGKGLEWVSSIGATVDNSYYASSVKGRFTISRDNAKNTLYLLMNSLKSEDTAVYYCSKDPTGSSRGQGTQVTVSSAPELLGGPSVFLFPPKPKDTLMISRTPEVTCVVVDVSHEDPEVKFNWYVDGVEVHNAKTKPREEQYNSTYRVVSVLTVLHQDWLNGKEYKCKVSNKALPAPIEKTISKAKGQPREPQVYTLPPSRDELTKNQVSLTCLVKGFYPSDIAVEWESNGQPENNYKTTPPVLDSDGSFFLYSKLTVDKSRWQQGNVFSCSVMHEALHNHYTQKSLSLSPGK
48 | – | 64.9 | 47.5 | 20401-FcDE (Fc fusion) VHH-Fc chain: QVQLQESGGGLVQAGESLTLSCIASGVIKDYAMGWFRQAPGKEREFVAAISWSGVSIYYADSVKGRFTISRDNAKNTVYLQMNSLEPEDTAVYYCAGTEGAYTVAGGSTFGYDMDYWGKGTQVTVSSAPELLGGPDVFLFPPKPKDTLMISRTPEVTCVVVDVSHEDPEVKFNWYVDGVEVHNAKTKPREEQYNSTYRVVSVLTVLHQDWLNGKEYKCKVSNKALPAPEEKTISKAKGQPREPQVYTLPPSRDELTKNQVSLTCLVKGFYPSDIAVEWESNGQPENNYKTTPPVLDSDGSFFLYSKLTVDKSRWQQGNVFSCSVMHEALHNHYTQKSLSLSPGK
